T1: HisGST-UreF/UreH complex (Helicobacter pylori, UniProt Q09065 1-254; Q09067 1-265)
T1 construct: UreF, urease accessory protein of Helicobacter pylori; UreH, urease accessory protein of Helicobacter pylori; also called wild-type HisGST-UreF (with UreH)
T1 sequence 1: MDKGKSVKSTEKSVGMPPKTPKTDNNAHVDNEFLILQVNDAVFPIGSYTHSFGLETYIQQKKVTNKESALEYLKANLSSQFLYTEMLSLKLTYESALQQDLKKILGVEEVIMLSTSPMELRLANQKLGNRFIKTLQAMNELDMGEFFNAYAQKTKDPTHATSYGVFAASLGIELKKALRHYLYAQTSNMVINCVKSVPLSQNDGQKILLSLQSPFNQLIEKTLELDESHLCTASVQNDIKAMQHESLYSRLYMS
T1 sequence 2: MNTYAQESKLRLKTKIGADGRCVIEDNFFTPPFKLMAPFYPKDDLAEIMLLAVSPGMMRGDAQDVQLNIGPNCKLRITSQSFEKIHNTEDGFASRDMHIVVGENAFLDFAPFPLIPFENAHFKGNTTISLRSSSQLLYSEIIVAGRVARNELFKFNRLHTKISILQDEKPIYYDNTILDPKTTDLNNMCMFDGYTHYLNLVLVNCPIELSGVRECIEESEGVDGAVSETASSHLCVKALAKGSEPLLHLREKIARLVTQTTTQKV

T2: UreH (Helicobacter pylori, UniProt Q09067 1-265)
T2 construct: UreH, urease accessory protein of Helicobacter pylori; The UreH chain of m6 to m9; also called UreH (ortholog of UreD)
T2 sequence: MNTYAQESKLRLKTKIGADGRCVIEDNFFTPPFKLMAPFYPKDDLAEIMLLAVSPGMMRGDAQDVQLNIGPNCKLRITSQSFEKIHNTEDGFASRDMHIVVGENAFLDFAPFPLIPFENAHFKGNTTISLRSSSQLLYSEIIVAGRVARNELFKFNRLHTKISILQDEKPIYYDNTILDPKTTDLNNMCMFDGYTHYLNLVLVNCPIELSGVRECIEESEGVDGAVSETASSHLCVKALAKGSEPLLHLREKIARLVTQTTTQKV

B1: UreF/UreH complex (complex)
chain 1: MDKGKSVKSTEKSVGMPPKTPKTDNNAHVDNEFLILQVNDAVFPIGSYTHSFGLETYIQQKKVTNKESALEYLKANLSSQFLYTEMLSLKLTYESALQQDLKKILGVEEVIMLSTSPMELRLANQKLGNRFIKTLQAMNELDMGEFFNAYAQKTKDPTHATSYGVFAASLGIELKKALRHYLYAQTSNMVINCVKSVPLSQNDGQKILLSLQSPFNQLIEKTLELDESHLCTASVQNDIKAMQHESLYSRLYMS
chain 2: MNTYAQESKLRLKTKIGADGRCVIEDNFFTPPFKLMAPFYPKDDLAEIMLLAVSPGMMRGDAQDVQLNIGPNCKLRITSQSFEKIHNTEDGFASRDMHIVVGENAFLDFAPFPLIPFENAHFKGNTTISLRSSSQLLYSEIIVAGRVARNELFKFNRLHTKISILQDEKPIYYDNTILDPKTTDLNNMCMFDGYTHYLNLVLVNCPIELSGVRECIEESEGVDGAVSETASSHLCVKALAKGSEPLLHLREKIARLVTQTTTQKV
notes: UreF, urease accessory protein of Helicobacter pylori; UreH, urease accessory protein of Helicobacter pylori (ortholog of UreD); also called (UreF/UreH)2; wild-type UreF/UreH complex; copies: 2 + 2
B2: UreF (natural protein)
chain: MDKGKSVKSTEKSVGMPPKTPKTDNNAHVDNEFLILQVNDAVFPIGSYTHSFGLETYIQQKKVTNKESALEYLKANLSSQFLYTEMLSLKLTYESALQQDLKKILGVEEVIMLSTSPMELRLANQKLGNRFIKTLQAMNELDMGEFFNAYAQKTKDPTHATSYGVFAASLGIELKKALRHYLYAQTSNMVINCVKSVPLSQNDGQKILLSLQSPFNQLIEKTLELDESHLCTASVQNDIKAMQHESLYSRLYMS
notes: UreF, urease accessory protein of Helicobacter pylori; The UreF chain of m6, for the rows of two chains that touch; also called UreF protomer; UreF chain A

Columns and labels:
[1] = molecular target: the molecule itself; assay: SEC-MALS; SEC/SLS; 40 µM UreG/UreF/UreH complex pre-incubated with 0.5 mM nickel and 1 mM GTP (2 mM magnesium sulfate); Superdex 200, phosphate-buffered saline; peaks analysed by SDS-PAGE
UreF = molecular target: B2; assay: crystal structure; UreG/UreF/UreH complex with 5 mM GDP, 10 mM magnesium sulfate, 5 mM aluminum fluoride; 1.5 M ammonium sulfate, 100 mM sodium acetate pH 5.0, 16°C; GDP-bound state, 2.35 Å; details: both partners purified
UreF/UreH complex = molecular target: B1; assay: as above; details: both partners purified
HisGST-UreF/UreH complex = molecular target: T1, HisGST-UreF/UreH complex; assay: pull-down; purified GST-UreF/UreH and excess UreG on GST SpinTrap, 30 min at 4°C; immobilised complex incubated with 1 mM GTP and 2 mM magnesium sulfate, washed with buffer C, eluted with glutathione; SDS-PAGE of wash and eluate; details: both partners purified
[2] = molecular target: the molecule itself; assay: crystal structure; UreG/UreF/UreH complex with 5 mM GDP, 10 mM magnesium sulfate, 5 mM aluminum fluoride; 1.5 M ammonium sulfate, 100 mM sodium acetate pH 5.0, 16°C; GDP-bound state, 2.35 Å
UreH = molecular target: T2, UreH; assay: as above; details: both partners purified

| Binder | stoichiometry N [1] | binding result (UreF) | binding result (UreF/UreH complex) | binding result (HisGST-UreF/UreH complex) | binding result [2] | binding result (UreH) |
| --- | --- | --- | --- | --- | --- | --- |
| UreG (natural protein, UreG, urease accessory protein (SIMIBI class GTPase) of Helicobacter pylori; Monomer in solution unless nickel and GTP (or free zinc) are present; two copies in the crystal of the UreG/UreF/UreH complex; also called apo-UreG; wild-type UreG; source: E. coli, purified (HisTrap, tag cleaved with SENP1C, second HisTrap, Superdex 75; dialysed with 5 mM EDTA)) MVKIGVCGPVGSGKTALIEALTRHMSKDYDMAVITNDIYTKEDAEFMCKNSVMPRERIIGVETGGCPHTAIREDASMNLEAVEEMHGRFPNLELLLIESGGDNLSATFNPELADFTIFVIDVAEGDKIPRKGGPGITRSDLLVINKIDLAPYVGADLKVMERDSKKMRGEKPFIFTNIRAKEGLDDVIAWIKRNALLED | 2 | binds | binds | binds |  |  |
| B1 | 2 |  |  |  |  |  |
| B2 |  |  |  |  | binds | binds |

— publication PMC3792862, “Structure of UreG/UreF/UreH Complex Reveals How Urease Accessory Proteins Facilitate Maturation of Helicobacter pylori Urease” (PLoS Biology, 2013)
